For experiment [1], the target named is Signal peptide CD28, Stalk CD8α. Nature of the experiment: flow cytometry of T cells nucleofected with the CAR construct, Day 1, Protein L-biotin + SA-APC against CD3-FITC; the filing reports it as CAR surface expression (legend: the short CD8α stalk does not permit surface expression).
The target in experiment [2] is Signal peptide CD8α, Stalk CD8α. The description is as above.
For experiment [3], the target named is Signal peptide Ig Kappa, Stalk CD8α. The experiment is described as above.
The target in experiment [4] is Signal peptide mIgVH, Stalk CD8α. Described as above.
Experiment [5] deals with T1, Extracellular domain (ECD) of ROR1 fused to human Fc region (UniProt Q01973 30-406, limits assumed).
T1 construct: extracellular domain; also called ROR1-Fc; ROR1-FC; not shown: human Fc region
T1 sequence (Q01973 30-406 limits assumed): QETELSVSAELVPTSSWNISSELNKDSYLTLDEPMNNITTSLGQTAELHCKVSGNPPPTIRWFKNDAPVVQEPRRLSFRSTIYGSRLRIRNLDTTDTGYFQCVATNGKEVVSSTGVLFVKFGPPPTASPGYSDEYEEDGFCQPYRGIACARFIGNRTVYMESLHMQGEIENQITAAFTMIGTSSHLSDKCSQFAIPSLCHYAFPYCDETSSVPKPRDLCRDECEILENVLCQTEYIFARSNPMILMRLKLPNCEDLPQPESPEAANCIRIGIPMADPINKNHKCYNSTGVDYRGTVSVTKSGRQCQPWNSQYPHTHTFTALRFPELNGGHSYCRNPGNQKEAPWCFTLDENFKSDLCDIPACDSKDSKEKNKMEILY
Put plainly: SPR, Biacore 3000; ROR1 ECD-human Fc on CM5 chip, antibody in solution. The method, then:
Different concentrations of humanized antibodies were injected in solution phase and data was analyzed using BIAevaluation to calculate Kd of the antibodies.

Experiment [6] addresses Extracellular domain (ECD) of ROR1 fused to human Fc region (UniProt Q01973). Put plainly: ROR1-Fc affinity of the construct's binding domain; method not given.
The target in experiment [7] is T2, ROR1-His (UniProt Q01973 30-403, limits assumed).
T2 construct: The construct is described nowhere; not shown: His tag
T2 sequence (Q01973 30-403 limits assumed): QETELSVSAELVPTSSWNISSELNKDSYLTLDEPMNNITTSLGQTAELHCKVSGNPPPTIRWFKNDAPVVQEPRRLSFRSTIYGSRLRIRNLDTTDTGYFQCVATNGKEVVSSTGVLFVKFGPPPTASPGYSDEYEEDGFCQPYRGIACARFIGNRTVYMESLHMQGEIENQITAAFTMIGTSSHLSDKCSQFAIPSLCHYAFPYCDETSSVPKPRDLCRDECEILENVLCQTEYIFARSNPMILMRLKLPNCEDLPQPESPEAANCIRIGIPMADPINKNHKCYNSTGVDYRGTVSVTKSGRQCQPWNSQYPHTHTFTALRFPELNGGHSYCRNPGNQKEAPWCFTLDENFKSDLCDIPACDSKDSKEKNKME
Put plainly: ROR1-His affinity of the construct's binding domain; method not given.

In experiment [8] the target is Extracellular domain (ECD) of ROR1 fused to human Fc region (UniProt Q01973). Put plainly: SPR, Biacore 3000; ROR1 ECD-human Fc on CM5 chip, antibody in solution; ROR1 ECD-human Fc on the chip per paragraph 451; same number stands under ROR1-His in Table 9.
Chain of Extracellular domain (ECD) of ROR1 fused to human Fc region (UniProt Q01973) (Q01973 30-406 limits assumed): as the sequence (Q01973 30-406 limits assumed) above
Experiment [9] has the same target. Put plainly: SPR, Biacore 3000; ROR1 ECD-human Fc on CM5 chip, antibody in solution.
Experiment [10] deals with T2, ROR1-His. Put plainly: ROR1-His affinity of the construct's binding domain; method not given; ROR1-His column, not ROR1-Fc (2.31E-08).

The record followed here is US20260035432A1 (PRECIGEN, published 2026).

Substitutions are numbered along the chain they refer to. Numbers in names are those of the source.

With Protein L-biotin, the fraction in quadrant Q6 (Protein L-biotin-SA-APC+, CD3-FITC+) turned out to be 2.6 in [1], 1.88 in experiment [2], 2.53 in experiment [3] and 2.13 in [4].

B1: Clone 18 (antibody, V domains shown)
VH: EVQLVESGGGLVQPGGSLRLSCSASGFTFSSYAMSWVRQVPGKGLVWISSISRGGTTYYADSVRGRFIISRDNAKNTLYLEMNNLRGEDTAVYYCARYDYDGYYAMDYWGQGTLVTVSS
VL: DIQLTQSPDSLAVSLGERATINCKASPDINSYLSWYQQRPGQPPRLLIHRANRLVDGVPDRFSGSGFGTDFTLTITSLQAEDVAIYYCLQYDEFPYTFGQGTKLEIK
notes: Variable regions fused to mouse constant regions (chimeric mouse IgG1 mAb) for SPR; also called hROR1 VH_18 / hROR1 VL_18
In experiment [5], B1 returned a Kd of 12.7 nM.

B2: Hum ROR1_05VH_(G4S)3x_VL_14 (antibody, mouse IgG1, V domains shown)
VH: EVQLVESGGGLVQPGGSLRLSCAASGFTFSSYAMSWVRQAPGKGLEWVSSISRGGTTYYPDSVKGRFTISRDNSKNTLYLQMNSLRAEDTAVYYCGRYDYDGYYAMDYWGQGTLVTVSS
VL: DIQMTQSPSSLSASVGDRVTITCKASPDINSYLNWYQQKPGKAPKLLIYRANRLVDGVPSRFSGSGSGTDYTLTISSLQPEDFATYYCLQYDEFPYTFGAGTKVEIK
notes: The name reads as an scFv with a (G4S)3 linker; The method text says variable regions were fused to mouse constant regions (chimeric mouse IgG1); VH/VL are tied by the numbers in the name
For the molecule B2, the Kd in experiment [6] stood at 0.193 nM; in experiment [7], 0.355 nM; in [8] it was 0.355 nM.

B3: Hum ROR1_18VH_(G4S)3x_VL_07 (antibody, mouse IgG1, V domains shown)
VH: B1 VH
VL: B2 VL with K24R, L33V, N34A, R53F, V55E, D56S, G66R, Y71F, A100Q
notes: as for B2
With B3, the affinity in [5], expressed as Kd, was 3.87 nM.

B4: Clone 07 (antibody, V domains shown)
VH: B2 VH with M34I, S35I, S49A, S50R, Y58R, P60A, R71A, N73T, N76E, L78A
VL: B2 VL with K24R, L33V, N34A, R53F, V55E, D56S, G66R, Y71F, A100Q
notes: Variable regions fused to mouse constant regions (chimeric mouse IgG1 mAb) for SPR; also called hROR1 VH_07 / hROR1 VL_07
B4 registered an equilibrium dissociation constant (Kd) in [5] of around 90 nM.

B5: Hum ROR1_18VH_(G4S)3x_VL_16 (antibody, mouse IgG1, V domains shown)
VH: B1 VH
VL: B2 VL with L46V, A100Q
notes: as for B2
In turn, B5 displayed a Kd in experiment [5] of 1.6 nM.

B6: Hum ROR1_18VH_(G4S)3x_VL_04 (antibody, mouse IgG1, V domains shown)
VH: B1 VH
VL: B2 VL with K24Q, R53N, V55E, D56T, Y71F, F83I, A100Q, V104L
notes: as for B2
For B6, the equilibrium dissociation constant (Kd) in experiment [9] was 0.372 nM; in experiment [6], 0.271 nM; in experiment [7] it was 0.372 nM.

B7: Hum ROR1_07VH_(G4S)3x_VL_05 (antibody, mouse IgG1, V domains shown)
VH: B2 VH with M34I, S35I, S49A, S50R, Y58R, P60A, R71A, N73T, N76E, L78A
VL: B2 VL with N34S, Y71F, F83I, A100Q, V104L
notes: as for B2
Take B7: the equilibrium dissociation constant (Kd) in [5] stood at 7.16 nM.

B8: Hum ROR1_07VH_(G4S)3x_VL_18 (antibody, mouse IgG1, V domains shown)
VH: B2 VH with M34I, S35I, S49A, S50R, Y58R, P60A, R71A, N73T, N76E, L78A
VL: B1 VL
notes: as for B2
Molecule B8 showed a dissociation constant Kd in experiment [5] of 11.7 nM.

B9: Clone 14 (antibody, V domains shown)
VH: B2 VH with A24T, V37M, S49A, P60A, R71V, N73K
VL: B2 VL
notes: Variable regions fused to mouse constant regions (chimeric mouse IgG1 mAb) for SPR; also called hROR1 VH_14 / hROR1 VL_14
Consider B9, for which the Kd in experiment [9] and in experiment [7] was 1.45 nM in each case.

B10: Clone 05 (antibody, V domains shown)
VH: B2 VH
VL: B2 VL with N34S, Y71F, F83I, A100Q, V104L
notes: Variable regions fused to mouse constant regions (chimeric mouse IgG1 mAb) for SPR; also called hROR1 VH_05 / hROR1 VL_05
For B10, the equilibrium dissociation constant (Kd) is 35 nM in [9], 35 nM in [6] and 37.4 nM in experiment [7].

B11: Hum_design_14_variant4 (antibody, V domains shown)
VH: B2 VH with S49A, S74V, K75R, T77I, N83S, A87S, V92M
VL: B2 VL
notes: Variable regions fused to mouse constant regions (chimeric mouse IgG1 mAb) for SPR; also called hROR1 VH_14-4 / hROR1 VL_14-4
Turning to B11, the results for the dissociation constant (Kd) in experiment [9], in experiment [6] and in experiment [7] were 0.408 nM, 0.284 nM and 0.408 nM, respectively.

B12: Hum ROR1_18VH_(G4S)3x_VL_14 (antibody, mouse IgG1, V domains shown)
VH: B1 VH
VL: B2 VL
notes: as for B2
In the case of B12, the results for the dissociation constant (Kd) in experiment [9], in experiment [6] and in experiment [7] were 0.209 nM, 0.201 nM and 0.209 nM, respectively.

B13: Clone 04 (antibody, V domains shown)
VH: B2 VH with S50A, P60A
VL: B2 VL with K24Q, R53N, V55E, D56T, Y71F, F83I, A100Q, V104L
notes: Variable regions fused to mouse constant regions (chimeric mouse IgG1 mAb) for SPR; also called hROR1 VH_04 / hROR1 VL_04
Take B13: the Kd in [5] was around 55 nM.

B14: Hum ROR1_07VH_(G4S)3x_VL_16 (antibody, mouse IgG1, V domains shown)
VH: B2 VH with M34I, S35I, S49A, S50R, Y58R, P60A, R71A, N73T, N76E, L78A
VL: B2 VL with L46V, A100Q
notes: as for B2
On to B14, for which binding in [5] was put at a Kd of 4.08 nM.

B15: Clone 16 (antibody, V domains shown)
VH: B2 VH with S49A, P60D, D61P, S62K, V63F, K64Q, G65D, F67A, R71A, L78A
VL: B2 VL with L46V, A100Q
notes: Variable regions fused to mouse constant regions (chimeric mouse IgG1 mAb) for SPR; also called hROR1 VH_16 / hROR1 VL_16
B15 returned a Kd in experiment [5] of 3.03 nM.

B16: Hum ROR1_14VH_(G4S)3x_VL_16 (antibody, mouse IgG1, V domains shown)
VH: B2 VH with A24T, V37M, S49A, P60A, R71V, N73K
VL: B2 VL with L46V, A100Q
notes: as for B2
B16 returned a dissociation constant (Kd) in experiment [5] of 131 nM.

B17: Hum_design_14_variant5 (antibody, V domains shown)
VH: B2 VH with A24T, V37M, Q39K, W47Y, S49A, P60A, R71V, N73K
VL: B2 VL
notes: Variable regions fused to mouse constant regions (chimeric mouse IgG1 mAb) for SPR; also called hROR1 VH_14-5 / hROR1 VL_14-5
Take B17: in experiment [5], the Kd came to 4.52 nM.

B18: Hum_design_14_variant3 (antibody, V domains shown)
VH: B2 VH with S49A, P60A
VL: B2 VL with Y71F, F83I, A100G
notes: Variable regions fused to mouse constant regions (chimeric mouse IgG1 mAb) for SPR; also called hROR1 VH_14-3 / hROR1 VL_14-3
On to B18, for which the equilibrium dissociation constant (Kd) amounted to 1.3 nM in [9], 0.959 nM in experiment [6] and 1.3 nM in experiment [7].

B19: Hum ROR1_05VH_(G4S)3x_VL_16 (antibody, mouse IgG1, V domains shown)
VH: B2 VH
VL: B2 VL with L46V, A100Q
notes: as for B2
As for B19, the Kd in experiment [9] worked out at 0.337 nM; in experiment [6], 0.273 nM; in [7], 0.337 nM.

B20: Murine ROR1_v2 binding domain (VL and VH of MurineROR1_v2 (VL-VH)) (antibody, V domains shown)
VH: EVKLVESGGGLVKPGGSLKLSCAASGFTFSSYAMSWVRQIPEKRLEWVASISRGGTTYYPDSVKGRFTISRDNVRNILYLQMSSLRSEDTAMYYCGRYDYDGYYAMDYWGQGTSVTVSS
VL: DVQITQSPSSLYASLGERVTITCKASPDINSYLSWFQQKPGKSPKTLIYRANRLVDGVPSRFSGGGSGQDYSLTINSLEYEDMGIYYCLQYDEFPYTFGGGTKLEMK
notes: also called Murine ROR1_v2 VH; murine ROR1 scFv
On to B20, for which the figures for the Kd in experiment [6] and in experiment [10] were 23.1 nM and 70.7 nM, respectively.
